Assay results as given in publication PMC4195903.
Where “and” joins values, the source holds several entries; their conditions need not be identical. Identical values can stand only once.

Tests used:
[1] = target: cellular thymidine kinase 1 (TK1), dog (dog (endogenous in ALL cells and mammary tumor tissue)); experiment: SEC; CMT tissue extract (dog No. 23) on Superose 12 (FPLC), 0.01 M HEPES pH 7.6, 0.15 M NH4Cl, 0.02% NaN3; fractions tested for TK1 activity and by immunoaffinity/Western blot
[2] = target: cellular thymidine kinase 1 (TK1), dog (dog (endogenous in ALL cells and mammary tumor tissue)); experiment: SEC; ALL cell extract on Superose 12 (FPLC), 0.01 M HEPES pH 7.6, 0.15 M NH4Cl, 0.02% NaN3; fractions tested for TK1 activity and by immunoaffinity/Western blot
[3] = target: serum thymidine kinase 1 (sTK1), dog (dog (endogenous in serum)); experiment: SEC; CMT serum (dog No. 23) on Superose 12 (FPLC), 0.01 M HEPES pH 7.6, 0.15 M NH4Cl, 0.02% NaN3; fractions tested for TK1 activity and by immunoaffinity/Western blot

Row | stoichiometry N [1] | stoichiometry N [2] | stoichiometry N [3] | Substance
1 | 4 | 2 |  | cellular thymidine kinase 1 (TK1), dog (enzyme)
2 |  |  | 2 and 4 | serum thymidine kinase 1 (sTK1), dog (enzyme)
